Results taken from article PMC4312765.

Target: Dpy30 C-terminal domain (human), Q9C005
Test: ITC; Dpy30FL or Dpy30C with synthetic DBM peptides; conditions not shown

Chain of Dpy30 C-terminal domain (human), Q9C005 (Q9C005 45-99): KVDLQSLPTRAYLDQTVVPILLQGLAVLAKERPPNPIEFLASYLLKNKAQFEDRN

- stoichiometry N: 0.5
Binder: DTLYKEQIAEDIVWDIIDELEQIALQQ (modifications not checked) [Bre2 Dpy30-binding motif peptide]
